Data reported in patent publication US20170363632A1, “Biomarker Kit for Metastatic Breast Cancer Prognosis and Uses Thereof” (University of Maryland, Baltimore, priority 2016, published 2017).

What was measured:
[1] = biological target: T1, HIS-PI3K/p85-SH3 (Homo sapiens, UniProt O00459); assay: Surface plasmon resonance (Biacore 3000) of obscurin-PH binding to PI3K/p85-SH3; conditions: GST-obscurin-PH immobilized ligand, HIS-PI3K/p85-SH3 analyte 8-250 nM; 1:1 Langmuir model, at equilibrium; read-out: dissociation constant, KD
T1 construct: the Src Homology 3 (SH3) domain of the regulatory subunit of PI3K were produced; made in house; host or cells: bacteria (IPTG induction)
T1 sequence (O00459 4-80 limits assumed): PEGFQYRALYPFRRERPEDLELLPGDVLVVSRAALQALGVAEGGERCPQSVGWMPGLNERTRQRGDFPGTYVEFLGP
T1 sequence (Q5VST9 5895-6004 partner limits assumed): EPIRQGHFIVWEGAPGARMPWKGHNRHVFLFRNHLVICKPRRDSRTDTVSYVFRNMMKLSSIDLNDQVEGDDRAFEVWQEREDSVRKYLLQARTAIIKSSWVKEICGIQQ
Excerpt: The Pleckstrin Homology (PH) domain of obscurin and the Src Homology 3 (SH3) domain of the regulatory subunit of PI3K were produced as glutathione-S-transferase (GST, PGEX vector; GE Healthcare Life Sciences) and His (pET-30a(+) vector; EMD Millipore, Billerica, Mass.) tagged proteins, respectively, according to the manufacturers' instructions and established methods (19). Human cDNA from normal breast tissue was purchased from a commercial source (Origene, Atlanta, Ga.), and the following sets of primers were used for amplification of the obscurin-PH and the PI3K/p85-SH3 domains: Sense-Obsc-PH: 5′ CCCATCCGCCAGGGC 3′ (SEQ ID NO 1) and Antisense-Obsc-PH: 5′ AGGCAGGGCCAGACG 3′ (NM_001098623.2) (SEQ ID NO 2), and Sense-PI3K/p85-SH3: 5′ CCTGAGGGCTTCCAG 3′ (SEQ ID NO 3) and Antisense-PI3K/p85-SH3: 5′ TCAGGGCCCCAGGAA 3′ (NM_005027) (SEQ ID NO 4). […]
Surface plasmon resonance was performed using a BiaCore 3000 instrument as described (6, 19, 21). […] For each analyte concentration, association was measured for 180 sec and dissociation was measured over another 180 sec. Data were evaluated with the 1:1 Langmuir model and the Heterogeneous Ligand model (BIAevaluation Software 3.1, Biacore). The association (ka, M^−1 s^−1) and dissociation (kd, s^−1) rate constants as well as the association (KA, M^−1) and dissociation (KD, M) equilibrium constants were determined.

[2] = biological target: T1, HIS-PI3K/p85-SH3; assay: GST-pull down assay; type: binding; conditions: 3 mg/ml HIS-PI3K/p85-SH3; control GST-protein did not retain
Excerpt: The Pleckstrin Homology (PH) domain of obscurin and the Src Homology 3 (SH3) domain of the regulatory subunit of PI3K were produced as glutathione-S-transferase (GST, PGEX vector; GE Healthcare Life Sciences) and His (pET-30a(+) vector; EMD Millipore, Billerica, Mass.) tagged proteins, respectively, according to the manufacturers' instructions and established methods (19). Human cDNA from normal breast tissue was purchased from a commercial source (Origene, Atlanta, Ga.), and the following sets of primers were used for amplification of the obscurin-PH and the PI3K/p85-SH3 domains: Sense-Obsc-PH: 5′ CCCATCCGCCAGGGC 3′ (SEQ ID NO 1) and Antisense-Obsc-PH: 5′ AGGCAGGGCCAGACG 3′ (NM_001098623.2) (SEQ ID NO 2), and Sense-PI3K/p85-SH3: 5′ CCTGAGGGCTTCCAG 3′ (SEQ ID NO 3) and Antisense-PI3K/p85-SH3: 5′ TCAGGGCCCCAGGAA 3′ (NM_005027) (SEQ ID NO 4). GST- and His-tagged recombinant proteins were expressed by induction with 0.5 mM isopropyl […] (IPTG) for 3 h and purified by affinity chromatography on glutathione-Sepharose (Thermo Fisher Scientific) or Talon cobalt (Thermo Fisher Scientific) columns, respectively, following the manufacturers' instructions.
GST-pull down assays were performed (19, 20). […]

Kd [1]: ~50 nM
B1: GST-obscurin-PH: recombinant Pleckstrin Homology (PH) domain of obscurin fused to GST, bacterially expressed (~37 kDa) (protein)
chain: T1 sequence (Q5VST9 5895-6004 partner limits assumed)
modifications: left off: a dimerising Fc or GST
retention of HIS-PI3K/p85-SH3 in GST-pull down [2]: able to efficiently and specifically retain HIS-PI3K/p85-SH3
